Assay results as given in US20220169732A1 (BIOND BIOLOGICS, published 2022).
Where no end group is shown, it is not given here.

Columns and labels:
[1] = target: T1, Biotin conjugated L145K CD28 stalk region dimeric peptide (human, C-terminal biotin; dimer through Cysteine 141); assay: direct ELISA on L145K dimeric stalk peptide on neutravidin plates, anti His tag-HRP (FIG. 23)
T1 peptide: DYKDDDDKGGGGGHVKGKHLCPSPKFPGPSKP

[2] = target: T2, membranal human CD28 (full-length human CD28 on cells) (human, UniProt P10747 19-220); assay: FACS, FITC conjugated VHH on HEK cells overexpressing human CD28 (FIG. 14)
T2 construct: in the functional assays also the CD28 of human CD3 or CD4 T cells and PBMC; also called mCD28; membranal CD28

[3] = target: T3, BSA conjugated CD28 stalk region dimeric peptide (human, also: dimer through the cysteine, BSA conjugated via C-terminal Lys by hydrazide chemistry); assay: ELISA, antigen immobilized, serial dilution of M9, anti mouse IgG-HRP (FIG. 12A)
T3 construct: Peptide used for immunization and, BSA conjugated, as ELISA antigen for M9; also called stalk region peptide
T3 peptide: GKHLCPSPLFPGPSKPK

B1: VHH clone 4A4 (VHH)
VHH: EVQLVESGGGLVQAGGSLRLSCAASGSLFSINAMAWYRQAPGKQRELVAAITSSGSTNYANSVKGRFTVSRDNAKNTMYLQMNSLKPEDTAVYYCVVDEYGSDYWIWGQGTQVTVSS
- binding result [1]: no binding (tested: 0.2-5 µg/mL)

B2: VHH clone 2A1 (VHH)
VHH: EVQLVESGGGLVQAGESLRLSCAASGSIASINAMGWYRQAPGSQRELVAAISGGGDTYYADSVKGRFTISRDNAKTTVYLQMNSLRPEDTAVYYCVVDLYGSDYWDWGQGTQVTVSS
notes: also called VHH #2A1
- binding result [1]: no binding (tested: 0.2-5 µg/mL)
- binding result [2]: binds

B3: antibody M9 (antibody, V domains shown)
VH: DVKLVESGGGLVKLGGSLKLSCVASGFTFSSYYMSWVRQTPEKRLEWVATISDGGDNTYYAGTVTGRFTISRDFAKNTLYLQMNSLTSEDTAVYYCARIHWPYYFDSWGQGTTLTVSS
VL: QFVLSQSPAILSASPGEMLTMTCRASSSVSYMNWYQQKPGSSPKPWIYATSDLASGVPARFSGSGSGTSYSLTISRVEAEDAATYYCQQWSSHPPTFGGGTKLEIR
notes: Full-size mouse antibody raised in CD1 mice against the dimeric stalk peptide; detected with anti mouse IgG; also called clone M9; anti-cleavage antibody M9
- binding result [3]: binds

B4: VHH clone 4A1 (VHH)
VHH: QVQLVESGGGLVQAGGSLRLSCAASGSIFSINAMGWYRQAPGKQRERVAAITSGGSTNYADSVKGRFTISRDNAKNTVYLQMNNLEPRDAGVYYCVVDLYGEDYWIWGQGTQVTVSS
- binding result [1]: no binding (tested: 0.2-5 µg/mL)
